Experimental data published in the supplement of paper PMC12042874.
± gives the uncertainty stated by the source.

Experiment: amyloid nucleation score (Sup35N fusion, yeast selection) (log enrichment); library NNK1; higher = more nucleation; inactive = no reads after selection
How it was run: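 Output and input plasmid inserts were sequenced by Illumina after psi-negative yeast carrying Sup35N fused to peptides of 20 random codons had been induced 24 hours with 100 μM copper sulfate and grown 7 days at 30°C on medium lacking adenine and uracil. The nucleation score is the DiMSum log enrichment of output over input reads, centred on the mode score of non-aggregating sequences. Sequences with under 100 input reads were excluded.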

Question: For VSPDYMSYCIGVYLINLISV, which amyloid nucleation score is on record?
Answer: The amyloid nucleation score was 0.354 ± 0.59.

Question: For VSPMWVGYSRTSKLW, which amyloid nucleation score is on record?
Answer: Its amyloid nucleation score is 0.036 ± 0.26.

Question: For VSQCS, which amyloid nucleation score is on record?
Answer: Its amyloid nucleation score is 0.238 ± 0.54.

Question: Which amyloid nucleation score does the source give for VSRNFVTKDSQLNGLSN here?
Answer: Its amyloid nucleation score is -1.52 ± 1.4.

Question: With VSRNIWYRWGNLLAVVKM as the substance, how does the amyloid nucleation score read?
Answer: Its amyloid nucleation score is -0.025 ± 0.57.

Question: For VSRTCIQYCDDDDRSKSRSS, which amyloid nucleation score is on record?
Answer: The amyloid nucleation score was 0.253 ± 0.23.

Question: Which amyloid nucleation score does the source give for VSTIFHIGFVLKFRDYRESE here?
Answer: Its amyloid nucleation score is 2.93 ± 0.18.

Question: Which amyloid nucleation score does the source give for VSVFLGSGHRRARGW here?
Answer: Its amyloid nucleation score is -0.482 ± 0.47.

Question: Which amyloid nucleation score does the source give for VSYFVHIC here?
Answer: Its amyloid nucleation score is 0.145 ± 0.56.

Question: With VSYYCAQALVLRIPEEWATE as the substance, how does the amyloid nucleation score read?
Answer: Its amyloid nucleation score is -0.168 ± 1.3.

Question: For VTLGHHDRSCFYEDSVQTRD, which amyloid nucleation score is on record?
Answer: The amyloid nucleation score was 0.832 ± 0.49.

Question: With VTLTYNYVRRTHMRRDVVAK as the substance, how does the amyloid nucleation score read?
Answer: Its amyloid nucleation score is 0.6 ± 0.34.

Question: For VTSWQIDKLPWASANSLFWL, which amyloid nucleation score is on record?
Answer: Its amyloid nucleation score is 0.334 ± 0.27.

Question: Which amyloid nucleation score does the source give for VTTYLG here?
Answer: The amyloid nucleation score was -0.499 ± 0.74.

Question: For VTVLSSVLIL, which amyloid nucleation score is on record?
Answer: Its amyloid nucleation score is 0.332 ± 0.27.

Question: For VTVTYIRCTR, which amyloid nucleation score is on record?
Answer: The amyloid nucleation score was 1.25 ± 0.63.

Question: Which amyloid nucleation score does the source give for VVDVHVSFRCLFKMGV here?
Answer: The amyloid nucleation score was 1.51 ± 0.4.

Question: With VVDVQALSWSRGADLSSW as the substance, how does the amyloid nucleation score read?
Answer: Its amyloid nucleation score is 1.02 ± 0.68.

Question: For VVEFCCVQT, which amyloid nucleation score is on record?
Answer: Its amyloid nucleation score is -1.53 ± 1.7.

Question: Which amyloid nucleation score does the source give for VVEIWR here?
Answer: Its amyloid nucleation score is 0.655 ± 0.6.

Question: For VVGSMVRSGLGPQPMTS, which amyloid nucleation score is on record?
Answer: The amyloid nucleation score was 1.08 ± 0.68.

Question: With VVIVN as the substance, how does the amyloid nucleation score read?
Answer: The amyloid nucleation score was 0.439 ± 0.47.

Question: With VVLPWSFIWRCGVERQ as the substance, how does the amyloid nucleation score read?
Answer: The amyloid nucleation score was -0.812 ± 0.42.

Question: Which amyloid nucleation score does the source give for VVMYRALTNHN here?
Answer: The amyloid nucleation score was 0.949 ± 0.59.

Question: For VVQGVTCSLIMYSTRNCLFR, which amyloid nucleation score is on record?
Answer: The amyloid nucleation score was -0.444 ± 1.6.

Question: Which amyloid nucleation score does the source give for VVRAFLTLILAVIDEENGSE here?
Answer: Its amyloid nucleation score is -1.42 ± 2.7.

Question: With VVRPAPRDKPTGPSLCLWGN as the substance, how does the amyloid nucleation score read?
Answer: Its amyloid nucleation score is 0.086 ± 0.42.

Question: Which amyloid nucleation score does the source give for VVSMSQEVEAPRAPHMAAFK here?
Answer: Its amyloid nucleation score is 0.25 ± 0.53.

Question: Which amyloid nucleation score does the source give for VVSNVPVWTSGYYHHCCHRC here?
Answer: Its amyloid nucleation score is 0.856 ± 0.79.

Question: For VVSSRSIMGTVRMNEKVVAT, which amyloid nucleation score is on record?
Answer: Its amyloid nucleation score is -0.563 ± 0.46.

Question: For VVTRWLASNNDGGIESLLIK, which amyloid nucleation score is on record?
Answer: The amyloid nucleation score was 0.132 ± 0.33.

Question: For VVVSLK, which amyloid nucleation score is on record?
Answer: The amyloid nucleation score was -0.916 ± 0.86.

Question: With VWARVMNAYFDTSH as the substance, how does the amyloid nucleation score read?
Answer: Its amyloid nucleation score is -1.22 ± 2.4.

Question: With VWFCIYAFVHSYGLYVVSMV as the substance, how does the amyloid nucleation score read?
Answer: The amyloid nucleation score was -0.03 ± 0.31.

Question: Which amyloid nucleation score does the source give for VWFFQNNVNFSDKQ here?
Answer: The amyloid nucleation score was 8.011 ± 0.045.

Question: Which amyloid nucleation score does the source give for VWIICQHGG here?
Answer: Its amyloid nucleation score is 4.09 ± 0.11.

Question: With VWLPYIFIDTSY as the substance, how does the amyloid nucleation score read?
Answer: The amyloid nucleation score was “inactive”.

Question: For VWPAQGS, which amyloid nucleation score is on record?
Answer: Its amyloid nucleation score is -0.325 ± 0.8.

Question: Which amyloid nucleation score does the source give for VWRHGHNELRIRYAVSLYM here?
Answer: The amyloid nucleation score was 0.608 ± 0.46.

Question: Which amyloid nucleation score does the source give for VWRSFSGNITCMLFYNFPVR here?
Answer: Its amyloid nucleation score is -0.621 ± 0.95.

Question: For VWSKVLGSGRWSVVRGRAWR, which amyloid nucleation score is on record?
Answer: The amyloid nucleation score was 1.63 ± 0.21.

Question: Which amyloid nucleation score does the source give for VWSNMCFLIDSI here?
Answer: The amyloid nucleation score was -0.491 ± 0.3.

Question: With VWVHKAY as the substance, how does the amyloid nucleation score read?
Answer: Its amyloid nucleation score is -0.021 ± 1.2.

Question: Which amyloid nucleation score does the source give for VWYVLMSSSVTYYLSR here?
Answer: Its amyloid nucleation score is -0.075 ± 0.55.

Question: With VYEYFRLAGGAIQIAGIPVA as the substance, how does the amyloid nucleation score read?
Answer: Its amyloid nucleation score is -0.002 ± 0.72.

Question: Which amyloid nucleation score does the source give for VYFGRISLWLNMH here?
Answer: The amyloid nucleation score was -0.449 ± 0.59.

Question: For VYGVRAIR, which amyloid nucleation score is on record?
Answer: Its amyloid nucleation score is 0.503 ± 0.61.

Question: For VYHIYDG, which amyloid nucleation score is on record?
Answer: The amyloid nucleation score was -0.662 ± 0.43.

Question: Which amyloid nucleation score does the source give for VYLFSVLVDVSRMSNGMLTR here?
Answer: The amyloid nucleation score was -0.211 ± 1.2.

Question: Which amyloid nucleation score does the source give for VYLKKSLFL here?
Answer: The amyloid nucleation score was -0.484 ± 0.9.

Question: With VYMSIRYRGSDNIRICVSVR as the substance, how does the amyloid nucleation score read?
Answer: The amyloid nucleation score was -0.13 ± 0.43.

Question: For VYSQINSRHWEFMDLELSLG, which amyloid nucleation score is on record?
Answer: Its amyloid nucleation score is 0.147 ± 0.93.

Question: For VYSYYLLLGLW, which amyloid nucleation score is on record?
Answer: Its amyloid nucleation score is 3.66 ± 0.084.

Question: For VYVVGLFQLVSITFLCRITV, which amyloid nucleation score is on record?
Answer: Its amyloid nucleation score is 0.153 ± 0.22.

Question: For VYYYVNTVCWSARFHVGSGR, which amyloid nucleation score is on record?
Answer: The amyloid nucleation score was -0.561 ± 0.74.

Question: With WAIFLVR as the substance, how does the amyloid nucleation score read?
Answer: Its amyloid nucleation score is -2.31 ± 2.4.

Question: Which amyloid nucleation score does the source give for WASGRGSSVRIKQLPHDRQQ here?
Answer: Its amyloid nucleation score is -0.779 ± 0.43.

Question: With WAVGVRSQLWVARQAKVMGG as the substance, how does the amyloid nucleation score read?
Answer: The amyloid nucleation score was 0.741 ± 0.69.

Question: Which amyloid nucleation score does the source give for WAYVAALRGYCYVGGRYLYT here?
Answer: Its amyloid nucleation score is -0.91 ± 1.2.

Question: Which amyloid nucleation score does the source give for WCCGLCVLMQLNTVMLSKGL here?
Answer: Its amyloid nucleation score is 5.33 ± 0.066.

Question: For WCMGHNSYYVKEIVIDVLWL, which amyloid nucleation score is on record?
Answer: Its amyloid nucleation score is “inactive”.

Question: Which amyloid nucleation score does the source give for WCTATGVSRFTMGIKTCHCL here?
Answer: The amyloid nucleation score was 0.738 ± 0.38.

Question: With WCTTVRIRLYGSSIWRLFGA as the substance, how does the amyloid nucleation score read?
Answer: The amyloid nucleation score was 0.76 ± 0.45.

Question: Which amyloid nucleation score does the source give for WCVWFVQISCMVRVGAKLNS here?
Answer: The amyloid nucleation score was 0.184 ± 0.38.

Question: For WCYVYRSRRVSMTSWVLRTQ, which amyloid nucleation score is on record?
Answer: Its amyloid nucleation score is 0.19 ± 0.26.

Question: With WDAHGDIVKG as the substance, how does the amyloid nucleation score read?
Answer: Its amyloid nucleation score is 0.877 ± 1.

Question: Which amyloid nucleation score does the source give for WDALLPLPAEFAYRATTMHA here?
Answer: The amyloid nucleation score was 0.444 ± 1.1.

Question: With WDKFC as the substance, how does the amyloid nucleation score read?
Answer: The amyloid nucleation score was -1.16 ± 0.88.

Question: With WDKWI as the substance, how does the amyloid nucleation score read?
Answer: Its amyloid nucleation score is 0.418 ± 0.49.

Question: Which amyloid nucleation score does the source give for WDTTVWMIPFNARVFFVGLC here?
Answer: Its amyloid nucleation score is -0.083 ± 0.35.

Question: Which amyloid nucleation score does the source give for WETWYSVCYAIEIRSYKIRV here?
Answer: Its amyloid nucleation score is -1.3 ± 1.

Question: For WFEVNSACQLSNLGGLTEFR, which amyloid nucleation score is on record?
Answer: The amyloid nucleation score was -0.417 ± 1.4.

Question: Which amyloid nucleation score does the source give for WFFVDSVYIRNKFSLEKGSA here?
Answer: The amyloid nucleation score was 7.494 ± 0.052.
